The results in this text go back to article PMC8298264, “Function of cofactor Akirin2 in the regulation of gene expression in model human neutrophil-like HL60 cells” (Bioscience Reports, 2021).

The experiment concerns human HL60 cells. As to the kind of experiment: SWATH-MS proteomics, differential protein representation, akirin2 KO vs WT HL60 cells. The settings on record: SWATH-MS, akirin2 KO vs WT HL60 cells; over-represented in KO. The format is cell-based. An outline of the steps:
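Proteins from WT and akirin2 KO HL60 cells (n=3 biological replicates) were FASP trypsin-digested and analyzed by SWATH-MS DIA with variable windows against an IDA-derived spectral library. Identifications at 1% global FDR; quantities normalized to total area sums of all detected proteins.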

B1: sp¦O75368¦SH3L1_HUMAN (protein, UniProt O75368 1-114, looked up)
Adapter SH3BGRL: MVIRVYIASSSGSTAIKKKQQDVLGFLEANKIGFEEKDIAANEENRKWMRENVPENSRPATGYPLPPQIFNESQYRGDYDAFFEARENNAVYAFLGLTAPPGSKEAEVQAKQQA
For B1, the “Fold Change” value came out at 1.672 and the “Log (Fold Change)” value was found to be 0.2233.

B2: sp¦P30740¦ILEU_HUMAN (protein, UniProt P30740 1-379, looked up)
Leukocyte elastase inhibitor: MEQLSSANTRFALDLFLALSENNPAGNIFISPFSISSAMAMVFLGTRGNTAAQLSKTFHFNTVEEVHSRFQSLNADINKRGASYILKLANRLYGEKTYNFLPEFLVSTQKTYGADLASVDFQHASEDARKTINQWVKGQTEGKIPELLASGMVDNMTKLVLVNAIYFKGNWKDKFMKEATTNAPFRLNKKDRKTVKMMYQKKKFAYGYIEDLKCRVLELPYQGEELSMVILLPDDIEDESTGLKKIEEQLTLEKLHEWTKPENLDFIEVNVSLPRFKLEESYTLNSDLARLGVQDLFNSSKADLSGMSGARDIFISKIVHKSFVEVNEEGTEAAAATAGIATFCMLMPEENFTADHPFLFFIRHNSSGSILFLGRFSSP
For the molecule B2, the “Fold Change” value is 1.651 and the “Log (Fold Change)” value came out at 0.2178.

B3: Perilipin-3 (protein, UniProt O60664 2-434, looked up)
Perilipin-3: SADGAEADGSTQVTVEEPVQQPSVVDRVASMPLISSTCDMVSAAYASTKESYPHIKTVCDAAEKGVRTLTAAAVSGAQPILSKLEPQIASASEYAHRGLDKLEENLPILQQPTEKVLADTKELVSSKVSGAQEMVSSAKDTVATQLSEAVDATRGAVQSGVDKTKSVVTGGVQSVMGSRLGQMVLSGVDTVLGKSEEWADNHLPLTDAELARIATSLDGFDVASVQQQRQEQSYFVRLGSLSERLRQHAYEHSLGKLRATKQRAQEALLQLSQVLSLMETVKQGVDQKLVEGQEKLHQMWLSWNQKQLQGPEKEPPKPEQVESRALTMFRDIAQQLQATCTSLGSSIQGLPTNVKDQVQQARRQVEDLQATFSSIHSFQDLSSSILAQSRERVASAREALDHMVEYVAQNTPVTWLVGPFAPGITEKAPEEKK
With B3, the “Fold Change” value is 1.9528 and the “Log (Fold Change)” value is recorded as 0.2907.

B4: Annexin A5 (protein, UniProt P08758 2-320, looked up)
Annexin A5: AQVLRGTVTDFPGFDERADAETLRKAMKGLGTDEESILTLLTSRSNAQRQEISAAFKTLFGRDLLDDLKSELTGKFEKLIVALMKPSRLYDAYELKHALKGAGTNEKVLTEIIASRTPEELRAIKQVYEEEYGSSLEDDVVGDTSGYYQRMLVVLLQANRDPDAGIDEAQVEQDAQALFQAGELKWGTDEEKFITIFGTRSVSHLRKVFDKYMTISGFQIEETIDRETSGNLEQLLLAVVKSIRSIPAYLAETLYYAMKGAGTDDHTLIRVMVSRSEIDLFNIRKEFRKNFATSLYSMIKGDTSGDYKKALLLLCGEDD
Regarding B4, the “Fold Change” value stood at 1.702 and the “Log (Fold Change)” value is on record as 0.231.

B5: Hematopoietic lineage cell-specific protein (protein, UniProt P14317 1-486, looked up)
Hematopoietic lineage …: MWKSVVGHDVSVSVETQGDDWDTDPDFVNDISEKEQRWGAKTIEGSGRTEHINIHQLRNKVSEEHDVLRKKEMESGPKASHGYGGRFGVERDRMDKSAVGHEYVAEVEKHSSQTDAAKGFGGKYGVERDRADKSAVGFDYKGEVEKHTSQKDYSRGFGGRYGVEKDKWDKAALGYDYKGETEKHESQRDYAKGFGGQYGIQKDRVDKSAVGFNEMEAPTTAYKKTTPIEAASSGTRGLKAKFESMAEEKRKREEEEKAQQVARRQQERKAVTKRSPEAPQPVIAMEEPAVPAPLPKKISSEAWPPVGTPPSSESEPVRTSREHPVPLLPIRQTLPEDNEEPPALPPRTLEGLQVEEEPVYEAEPEPEPEPEPEPENDYEDVEEMDRHEQEDEPEGDYEEVLEPEDSSFSSALAGSSGCPAGAGAGAVALGISAVAVYDYQGEGSDELSFDPDDVITDIEMVDEGWWRGRCHGHFGLFPANYVKLLE
As to B5, the “Fold Change” value turned out to be 1.764 and the “Log (Fold Change)” value came out at 0.2466.

B6: Heat shock protein 105 kDa (protein, UniProt Q92598 2-858, looked up)
Heat shock protein 105 kDa: SVVGLDVGSQSCYIAVARAGGIETIANEFSDRCTPSVISFGSKNRTIGVAAKNQQITHANNTVSNFKRFHGRAFNDPFIQKEKENLSYDLVPLKNGGVGIKVMYMGEEHLFSVEQITAMLLTKLKETAENSLKKPVTDCVISVPSFFTDAERRSVLDAAQIVGLNCLRLMNDMTAVALNYGIYKQDLPSLDEKPRIVVFVDMGHSAFQVSACAFNKGKLKVLGTAFDPFLGGKNFDEKLVEHFCAEFKTKYKLDAKSKIRALLRLYQECEKLKKLMSSNSTDLPLNIECFMNDKDVSGKMNRSQFEELCAELLQKIEVPLYSLLEQTHLKVEDVSAVEIVGGATRIPAVKERIAKFFGKDISTTLNADEAVARGCALQCAILSPAFKVREFSVTDAVPFPISLIWNHDSEDTEGVHEVFSRNHAAPFSKVLTFLRRGPFELEAFYSDPQGVPYPEAKIGRFVVQNVSAQKDGEKSRVKVKVRVNTHGIFTISTASMVEKVPTEENEMSSEADMECLNQRPPENPDTDKNVQQDNSEAGTQPQVQTDAQQTSQSPPSPELTSEENKIPDADKANEKKVDQPPEAKKPKIKVVNVELPIEANLVWQLGKDLLNMYIETEGKMIMQDKLEKERNDAKNAVEEYVYEFRDKLCGPYEKFICEQDHQNFLRLLTETEDWLYEEGEDQAKQAYVDKLEELMKIGTPVKVRFQEAEERPKMFEELGQRLQHYAKIAADFRNKDEKYNHIDESEMKKVEKSVNEVMEWMNNVMNAQAKKSLDQDPVVRAQEIKTKIKELNNTCEPVVTQPKPKIESPKLERTPNGPNIDKKEEDLEDKNNFGAEPPHQNGECYPNEKNSVNMDLD
For B6, the “Fold Change” value stood at 1.783 and the “Log (Fold Change)” value is 0.2511.

B7: sp¦P08246¦ELNE_HUMAN (protein, UniProt P08246 30-267, looked up)
Neutrophil elastase: IVGGRRARPHAWPFMVSLQLRGGHFCGATLIAPNFVMSAAHCVANVNVRAVRVVLGAHNLSRREPTRQVFAVQRIFENGYDPVNLLNDIVILQLNGSATINANVQVAQLPAQGRRLGNGVQCLAMGWGLLGRNRGIASVLQELNVTVVTSLCRRSNVCTLVRGRQAGVCFGDSGSPLVCNGLIHGIASFVRGGCASGLYPDAFAPVAQFVNWIDSIIQRSEDNPCPHPRDPDPASRTH
Take B7: the “Fold Change” value came to 1.634 and the “Log (Fold Change)” value came out at 0.2132.

B8: Copper transport protein ATOX1 (protein, UniProt O00244 1-68, looked up)
Copper transport protein ATOX1: MPKHEFSVDMTCGGCAEAVSRVLNKLGGVKYDIDLPNKKVCIESEHSMDTLLATLKKTGKTVSYLGLE
As for B8, the “Fold Change” value is recorded as 1.845 and the “Log (Fold Change)” value is 0.266.

B9: sp¦Q9P013¦CWC15_HUMAN (protein, UniProt Q9P013 2-229, looked up)
Spliceosome-associated …: TTAARPTFEPARGGRGKGEGDLSQLSKQYSSRDLPSHTKIKYRQTTQDAPEEVRNRDFRRELEERERAAAREKNRDRPTREHTTSSSVSKKPRLDQIPAANLDADDPLTDEEDEDFEEESDDDDTAALLAELEKIKKERAEEQARKEQEQKAEEERIRMENILSGNPLLNLTGPSQPQANFKVKRRWDDDVVFKNCAKGVDDQKKDKRFVNDTLRSEFHKKFMEKYIK
Take B9: the “Fold Change” value is given as 1.692 and the “Log (Fold Change)” value was 0.2285.

B10: Resistin (protein, UniProt Q9HD89 19-108, looked up)
Resistin: KTLCSMEEAINERIQEVAGSLIFRAISSIGLECQSVTSRGDLATCPRGFAVTGCTCGSACGSWDVRAETTCHCQCAGMDWTGARCCRVQP
With B10, the “Fold Change” value is 1.774 and the “Log (Fold Change)” value is 0.2489.

B11: sp¦P13693¦TCTP_HUMAN (protein, UniProt P13693 1-172, looked up)
Translationally-controlled …: MIIYRDLISHDEMFSDIYKIREIADGLCLEVEGKMVSRTEGNIDDSLIGGNASAEGPEGEGTESTVITGVDIVMNHHLQETSFTKEAYKKYIKDYMKSIKGKLEEQRPERVKPFMTGAAEQIKHILANFKNYQFFIGENMNPDGMVALLDYREDGVTPYMIFFKDGLEMEKC
Consider B11, for which the “Fold Change” value amounted to 1.634 and the “Log (Fold Change)” value was 0.2132.

B12: Serpin B10 (protein, UniProt P48595 1-397, looked up)
Serpin B10: MDSLATSINQFALELSKKLAESAQGKNIFFSSWSISTSLTIVYLGAKGTTAAQMAQVLQFNRDQGVKCDPESEKKRKMEFNLSNSEEIHSDFQTLISEILKPNDDYLLKTANAIYGEKTYAFHNKYLEDMKTYFGAEPQPVNFVEASDQIRKDINSWVERQTEGKIQNLLPDDSVDSTTRMILVNALYFKGIWEHQFLVQNTTEKPFRINETTSKPVQMMFMKKKLHIFHIEKPKAVGLQLYYKSRDLSLLILLPEDINGLEQLEKAITYEKLNEWTSADMMELYEVQLHLPKFKLEDSYDLKSTLSSMGMSDAFSQSKADFSGMSSARNLFLSNVFHKAFVEINEQGTEAAAGSGSEIDIRIRVPSIEFNANHPFLFFIRHNKTNTILFYGRLCSP
For the molecule B12, the “Fold Change” value came out at 1.749 and the “Log (Fold Change)” value is 0.2428.

B13: sp¦O43633¦CHM2A_HUMAN (protein, UniProt O43633 1-222, looked up)
Charged multivesicular body …: MDLLFGRRKTPEELLRQNQRALNRAMRELDRERQKLETQEKKIIADIKKMAKQGQMDAVRIMAKDLVRTRRYVRKFVLMRANIQAVSLKIQTLKSNNSMAQAMKGVTKAMGTMNRQLKLPQIQKIMMEFERQAEIMDMKEEMMNDAIDDAMGDEEDEEESDAVVSQVLDELGLSLTDELSNLPSTGGSLSVAAGGKKAEAAASALADADADLEERLKNLRRD
Turning to B13, the “Fold Change” value is given as 1.663 and the “Log (Fold Change)” value is recorded as 0.2209.

B14: Bone marrow proteoglycan (protein, UniProt P13727 17-222, looked up)
Bone marrow proteoglycan: LHLRSETSTFETPLGAKTLPEDEETPEQEMEETPCRELEEEEEWGSGSEDASKKDGAVESISVPDMVDKNLTCPEEEDTVKVVGIPGCQTCRYLLVRSLQTFSQAWFTCRRCYRGNLVSIHNFNINYRIQCSVSALNQGQVWIGGRITGSGRCRRFQWVDGSRWNFAYWAAHQPWSRGGHCVALCTRGGHWRRAHCLRRLPFICSY
As to B14, the “Fold Change” value is 6.406 and the “Log (Fold Change)” value worked out at 0.8066.

B15: Galectin-9 (protein, UniProt O00182 1-355, looked up)
Galectin-9: MAFSGSQAPYLSPAVPFSGTIQGGLQDGLQITVNGTVLSSSGTRFAVNFQTGFSGNDIAFHFNPRFEDGGYVVCNTRQNGSWGPEERKTHMPFQKGMPFDLCFLVQSSDFKVMVNGILFVQYFHRVPFHRVDTISVNGSVQLSYISFQNPRTVPVQPAFSTVPFSQPVCFPPRPRGRRQKPPGVWPANPAPITQTVIHTVQSAPGQMFSTPAIPPMMYPHPAYPMPFITTILGGLYPSKSILLSGTVLPSAQRFHINLCSGNHIAFHLNPRFDENAVVRNTQIDNSWGSEERSLPRKMPFVRGQSFSVWILCEAHCLKVAVDGQHLFEYYHRLRNLPTINRLEVGGDIQLTHVQT
With B15, the “Fold Change” value was 1.857 and the “Log (Fold Change)” value was determined as 0.2687.
